Measured values from patent publication US7109167.
No end group written: not given here.

Experiments:
[1] = target: endothelial cell receptor for TKPPR on human aortic endothelial cells (HAEC); assay: microbubbles with 5% BRU-114 on HAEC, static, no competitor
[2] = target: endothelial cell receptor for TKPPR on human aortic endothelial cells (HAEC); assay: 2% BRU-114 bubbles on HAEC, static, no competitor
[3] = target: receptor for TKPPR on rabbit aortic endothelial cells (RAEC); assay: 5% BRU-114 bubbles on RAEC, static, no competitor
[4] = target: endothelial cell receptor for TKPPR on human aortic endothelial cells (HAEC); assay: 5% BRU-114 bubbles on HAEC, static, no competitor (same control as the 20th table)
[5] = target: endothelial cell receptor for TKPPR on human aortic endothelial cells (HAEC); assay: 5% BRU-114 bubbles on HAEC, static, cells pretreated 4 h with 10 ng/mL TNFα
[6] = target: endothelial cell receptor for TKPPR on human aortic endothelial cells (HAEC); assay: microbubbles with 5% BRU-114 on HAEC, static inverted culture
[7] = target: endothelial cell receptor for TKPPR on human aortic endothelial cells (HAEC); assay: 5% BRU-114 bubbles on HAEC, static, cells pretreated 4 h with 1 ng/mL TNFα
[8] = target: KB cells (human epidermoid carcinoma cell line), cell surface; assay: 5% BRU-114 bubbles on KB cells, static
[9] = target: endothelial cell receptor for TKPPR on human aortic endothelial cells (HAEC); assay: 1% BRU-114 bubbles on HAEC, static, no competitor
[10] = target: endothelial cell receptor for TKPPR on human aortic endothelial cells (HAEC); assay: 5% BRU-114 bubbles on HAEC, static, no competitor (control)
[11] = target: endothelial cell receptor for TKPPR on human aortic endothelial cells (HAEC); assay: microbubbles on HAEC, static, manual count, 5% against 1% BRU-114
[12] = target: endothelial cell receptor for TKPPR on human aortic endothelial cells (HAEC); assay: microbubbles with 1% BRU-114 on HAEC, static, no competitor
[13] = target: endothelial cell receptor for TKPPR on human aortic endothelial cells (HAEC); assay: 5% BRU-114 bubbles on HAEC, static, cells pretreated 4 h with 0 ng/mL TNFα
[14] = target: endothelial cell receptor for TKPPR on human aortic endothelial cells (HAEC); assay: 1% BRU-114 bubbles on HAEC, static, no competitor, average of duplicates
[15] = target: endothelial cell receptor for TKPPR on human aortic endothelial cells (HAEC); assay: 5% BRU-114 bubbles on HAEC, static, no competitor
[16] = target: endothelial cell receptor for TKPPR on human aortic endothelial cells (HAEC); assay: 10% BRU-114 bubbles on HAEC, static, no competitor
[17] = target: endothelial cell receptor for TKPPR on human aortic endothelial cells (HAEC); assay: 2% BRU-114 bubbles on HAEC, static, no competitor, average of duplicates
[18] = target: endothelial cell receptor for TKPPR on human aortic endothelial cells (HAEC); assay: 5% BRU-114 bubbles on HAEC, static
[19] = target: endothelial cell receptor for TKPPR on human aortic endothelial cells (HAEC); assay: 5% BRU-114 bubbles on HAEC, static, cells pretreated 4 h with 5 ng/mL TNFα

B1: DPPE-Glu-GTKPPR (BRU-114) in gas-filled microbubbles (peptide)
peptide: GTKPPR-OH
modifications: not fully specified (N-terminus); also: built into phospholipid gas-filled microbubbles
bubbles bound, no competition [1]: 726 bubbles | Bubbles Bound % [2]: 100 % of control | RAEC bubbles bound [3]: 751 bubbles | Bubbles Bound [4]: 1250 bubbles | TKPPR-Bubbles bound [5]: 1020 bubbles | Bubbles Bound [6]: 7050 bubbles | TKPPR-Bubbles bound [7]: 1520 bubbles | KB cell bubble binding [8]: 56 bubbles | Bubbles Bound-1% [9]: 1640 bubbles | Bubbles Bound [10]: 1250 bubbles | % more bubbles bound than with the 1% composition [11]: 31% | bubbles bound, no competition [12]: 555 bubbles | TKPPR-Bubbles bound [13]: 950 bubbles | Bubbles Bound [14]: 737 bubbles | Bubbles Bound-5% [15]: 2780 bubbles | HAEC bubbles bound [15]: 1420 bubbles | Bubbles Bound-10% [16]: 1860 bubbles | Bubbles Bound [17]: 953 bubbles | HAEC bubble binding [18]: 1120 bubbles | TKPPR-Bubbles bound [19]: 1360 bubbles
